# Measured values: ChEMBL document CHEMBL1137666, “Biochemical Characterization of SFC-1, a class A carbapenem-hydrolyzing beta-lactamase” (Antimicrob Agents Chemother, 2007)
# B1: IMI-1 (Enterobacter cloacae), Q46991 (protein)
# chain: MSLNVKPSRIAILFSSCLVSISFFSQANTKGIDEIKDLETDFNGRIGVYALDTGSGKSFSYKANERFPLCSSFKGFLAAAVLKGSQDNQLNLNQIVNYNTRSLEFHSPITTKYKDNGMSLGDMAAAALQYSDNGATNIILERYIGGPEGMTKFMRSIGDKDFRLDRWELDLNTAIPGDERDTSTPAAVAKSLKTLALGNILNEREKETYQTWLKGNTTGAARIRASVPSDWVVGDKTGSCGAYGTANDYAVVWPKNRAPLIISVYTTKNEKEAKHEDKVIAEASRIAIDNLK
# B2: Carbapenem-hydrolizing beta-lactamase SFC-1 (Serratia fonticola), Q6JP75 (protein)
# chain: MSRTGRLSVFFSAIFPLLTLTNMAEAASQPPQVTVDKLKRLENDFGGRIGVYAIDTGSNKTFGYRANERFPLCSSFKGFLAAAVLSKSQQQEGLLNQRIRYDNRVMEPHSPVTEKQITTGMTVAELSAATLQYSDNGAANLLLEKLIGGPEGMTSFMRSIGDNVFRLDRWELELNSAIPGDDRDTSTPKAVAESMQKLAFGNVLGLTERHQLMDWFKGNTTGGARIRASVPANWVVGDKTGTCGVYGTANDYAVIWPVGHAPIVLAVYTSKPDKNSKHSDAVIADASRIVLESFNIDALRMATGKSIGF
# Tests used:
# [1] = substrate: CC(=O)OCC1=C(C(=O)O)N2C(=O)[C@@H](NC(=O)Cc3cccs3)[C@H]2SC1; conditions: Enterobacter cloacae
# Description: (§3) Activity of Enterobacter cloacae IMI1 beta lactamase expressed in Escherichia coli DH5alpha by SDS-PAGE
# [2] = substrate: C[C@H]1[C@H](NC(=O)/C(=N\OC(C)(C)C(=O)O)c2csc(N)n2)C(=O)N1S(=O)(=O)O; conditions: Enterobacter cloacae
# Description: as §3
# [3] = substrate: CC(C)(O/N=C(\C(=O)N[C@@H]1C(=O)N2C(C(=O)[O-])=C(C[n+]3ccccc3)CS[C@H]12)c1csc(N)n1)C(=O)O; conditions: Enterobacter cloacae
# Description: as §3
# [4] = substrate: CO[C@@]1(NC(=O)Cc2cccs2)C(=O)N2C(C(=O)O)=C(COC(N)=O)CS[C@@H]21; conditions: Enterobacter cloacae
# Description: as §3
# [5] = substrate: C[C@@H](O)[C@H]1C(=O)N2C(C(=O)O)=C(S[C@@H]3CN[C@H](C(=O)N(C)C)C3)[C@H](C)[C@H]12; conditions: Enterobacter cloacae
# Description: as §3
# [6] = substrate: C[C@@H](O)[C@H]1C(=O)N2C(C(=O)O)=C(SCCNC=N)C[C@H]12; conditions: Enterobacter cloacae
# Description: as §3
# [7] = substrate: CC1(C)S[C@@H]2[C@H](NC(=O)[C@H](N)c3ccccc3)C(=O)N2[C@H]1C(=O)O; conditions: Enterobacter cloacae
# Description: as §3
# [8] = substrate: CO/N=C(\C(=O)N[C@@H]1C(=O)N2C(C(=O)O)=C(COC(C)=O)CS[C@H]12)c1csc(N)n1; conditions: Enterobacter cloacae
# Description: as §3
# [9] = substrate: CCN1CCN(C(=O)N[C@@H](C(=O)N[C@@H]2C(=O)N3[C@@H]2SC(C)(C)[C@@H]3C(=O)O)c2ccccc2)C(=O)C1=O; conditions: Enterobacter cloacae
# Description: as §3
# [10] = substrate: CC(=O)OCC1=C(C(=O)O)N2C(=O)[C@@H](NC(=O)Cc3cccs3)[C@H]2SC1; conditions: Enterobacter cloacae; remark: listed apart in the source
# Description: (§4) Ratio of Kcat to Km for Enterobacter cloacae IMI1 beta lactamase Escherichia coli DH5alpha by SDS-PAGE
# [11] = substrate: C[C@H]1[C@H](NC(=O)/C(=N\OC(C)(C)C(=O)O)c2csc(N)n2)C(=O)N1S(=O)(=O)O; conditions: Enterobacter cloacae; remark: listed apart in the source
# Description: as §4
# [12] = substrate: CC(C)(O/N=C(\C(=O)N[C@@H]1C(=O)N2C(C(=O)[O-])=C(C[n+]3ccccc3)CS[C@H]12)c1csc(N)n1)C(=O)O; conditions: Enterobacter cloacae; remark: listed apart in the source
# Description: as §4
# [13] = substrate: CO[C@@]1(NC(=O)Cc2cccs2)C(=O)N2C(C(=O)O)=C(COC(N)=O)CS[C@@H]21; conditions: Enterobacter cloacae; remark: listed apart in the source
# Description: as §4
# [14] = substrate: C[C@@H](O)[C@H]1C(=O)N2C(C(=O)O)=C(S[C@@H]3CN[C@H](C(=O)N(C)C)C3)[C@H](C)[C@H]12; conditions: Enterobacter cloacae; remark: listed apart in the source
# Description: as §4
# [15] = substrate: C[C@@H](O)[C@H]1C(=O)N2C(C(=O)O)=C(SCCNC=N)C[C@H]12; conditions: Enterobacter cloacae; remark: listed apart in the source
# Description: as §4
# [16] = substrate: CC1(C)S[C@@H]2[C@H](NC(=O)[C@H](N)c3ccccc3)C(=O)N2[C@H]1C(=O)O; conditions: Enterobacter cloacae; remark: listed apart in the source
# Description: as §4
# [17] = substrate: CO/N=C(\C(=O)N[C@@H]1C(=O)N2C(C(=O)O)=C(COC(C)=O)CS[C@H]12)c1csc(N)n1; conditions: Enterobacter cloacae; remark: listed apart in the source
# Description: as §4
# [18] = substrate: CCN1CCN(C(=O)N[C@@H](C(=O)N[C@@H]2C(=O)N3[C@@H]2SC(C)(C)[C@@H]3C(=O)O)c2ccccc2)C(=O)C1=O; conditions: Enterobacter cloacae; remark: listed apart in the source
# Description: as §4
# [19] = substrate: CC(=O)OCC1=C(C(=O)O)N2C(=O)[C@@H](NC(=O)Cc3cccs3)[C@H]2SC1; experiment: (§1) Activity of Serratia fonticola UTAD54 SFC1 beta lactamase expressed in Escherichia coli BL21(DE3) by SDS-PAGE
# [20] = substrate: C[C@H]1[C@H](NC(=O)/C(=N\OC(C)(C)C(=O)O)c2csc(N)n2)C(=O)N1S(=O)(=O)O; experiment: as §1
# [21] = substrate: CC(C)(O/N=C(\C(=O)N[C@@H]1C(=O)N2C(C(=O)[O-])=C(C[n+]3ccccc3)CS[C@H]12)c1csc(N)n1)C(=O)O; experiment: as §1
# [22] = substrate: CO[C@@]1(NC(=O)Cc2cccs2)C(=O)N2C(C(=O)O)=C(COC(N)=O)CS[C@@H]21; experiment: as §1
# [23] = substrate: C[C@@H](O)[C@H]1C(=O)N2C(C(=O)O)=C(S[C@@H]3CN[C@H](C(=O)N(C)C)C3)[C@H](C)[C@H]12; experiment: as §1
# [24] = substrate: C[C@@H](O)[C@H]1C(=O)N2C(C(=O)O)=C(SCCNC=N)C[C@H]12; experiment: as §1
# [25] = substrate: CC1(C)S[C@@H]2[C@H](NC(=O)[C@H](N)c3ccccc3)C(=O)N2[C@H]1C(=O)O; experiment: as §1
# [26] = substrate: CO/N=C(\C(=O)N[C@@H]1C(=O)N2C(C(=O)O)=C(COC(C)=O)CS[C@H]12)c1csc(N)n1; experiment: as §1
# [27] = substrate: CCN1CCN(C(=O)N[C@@H](C(=O)N[C@@H]2C(=O)N3[C@@H]2SC(C)(C)[C@@H]3C(=O)O)c2ccccc2)C(=O)C1=O; experiment: as §1
# [28] = substrate: CC(=O)OCC1=C(C(=O)O)N2C(=O)[C@@H](NC(=O)Cc3cccs3)[C@H]2SC1; experiment: (§2) Ratio of Kcat to Km for Serratia fonticola UTAD54 SFC1 beta lactamase expressed in Escherichia coli BL21(DE3) by SDS-PAGE
# [29] = substrate: C[C@H]1[C@H](NC(=O)/C(=N\OC(C)(C)C(=O)O)c2csc(N)n2)C(=O)N1S(=O)(=O)O; experiment: as §2
# [30] = substrate: CC(C)(O/N=C(\C(=O)N[C@@H]1C(=O)N2C(C(=O)[O-])=C(C[n+]3ccccc3)CS[C@H]12)c1csc(N)n1)C(=O)O; experiment: as §2
# [31] = substrate: CO[C@@]1(NC(=O)Cc2cccs2)C(=O)N2C(C(=O)O)=C(COC(N)=O)CS[C@@H]21; experiment: as §2
# [32] = substrate: C[C@@H](O)[C@H]1C(=O)N2C(C(=O)O)=C(S[C@@H]3CN[C@H](C(=O)N(C)C)C3)[C@H](C)[C@H]12; experiment: as §2
# [33] = substrate: C[C@@H](O)[C@H]1C(=O)N2C(C(=O)O)=C(SCCNC=N)C[C@H]12; experiment: as §2
# [34] = substrate: CC1(C)S[C@@H]2[C@H](NC(=O)[C@H](N)c3ccccc3)C(=O)N2[C@H]1C(=O)O; experiment: as §2
# [35] = substrate: CO/N=C(\C(=O)N[C@@H]1C(=O)N2C(C(=O)O)=C(COC(C)=O)CS[C@H]12)c1csc(N)n1; experiment: as §2
# [36] = substrate: CCN1CCN(C(=O)N[C@@H](C(=O)N[C@@H]2C(=O)N3[C@@H]2SC(C)(C)[C@@H]3C(=O)O)c2ccccc2)C(=O)C1=O; experiment: as §2
protein,measurement,setting,value
B1,Km,[1],130 µM
same,kcat,[1],120 s⁻¹
same,Km,[2],93 µM
same,kcat,[2],51 s⁻¹
same,Km,[3],270 µM
same,kcat,[3],0.0068 s⁻¹
same,Km,[4],45 µM
same,kcat,[4],0.3 s⁻¹
same,Km,[5],26 µM
same,kcat,[5],10 s⁻¹
same,Km,[6],170 µM
same,kcat,[6],89 s⁻¹
same,Km,[7],780 µM
same,kcat,[7],190 s⁻¹
same,Km,[8],190 µM
same,kcat,[8],3.4 s⁻¹
same,Km,[9],13 µM
same,kcat,[9],6.1 s⁻¹
same,kcat/Km,[10],920000 M⁻¹ s⁻¹
same,kcat/Km,[11],550000 M⁻¹ s⁻¹
same,kcat/Km,[12],24 M⁻¹ s⁻¹
same,kcat/Km,[13],6700 M⁻¹ s⁻¹
same,kcat/Km,[14],380000 M⁻¹ s⁻¹
same,kcat/Km,[15],520000 M⁻¹ s⁻¹
same,kcat/Km,[16],240000 M⁻¹ s⁻¹
same,kcat/Km,[17],18000 M⁻¹ s⁻¹
same,kcat/Km,[18],470000 M⁻¹ s⁻¹
B2,Km,[19],129 µM
same,kcat,[19],280 s⁻¹
same,Km,[20],484 µM
same,kcat,[20],162 s⁻¹
same,Km,[21],52 µM
same,kcat,[21],2.1 s⁻¹
same,Km,[22],77 µM
same,kcat,[22],4.2 s⁻¹
same,Km,[23],26 µM
same,kcat,[23],6.5 s⁻¹
same,Km,[24],82 µM
same,kcat,[24],54 s⁻¹
same,Km,[25],176 µM
same,kcat,[25],155 s⁻¹
same,Km,[26],89 µM
same,kcat,[26],8.3 s⁻¹
same,Km,[27],38 µM
same,kcat,[27],44.7 s⁻¹
same,kcat/Km,[28],2.17e+06 M⁻¹ s⁻¹
same,kcat/Km,[29],335000 M⁻¹ s⁻¹
same,kcat/Km,[30],40400 M⁻¹ s⁻¹
same,kcat/Km,[31],54500 M⁻¹ s⁻¹
same,kcat/Km,[32],250000 M⁻¹ s⁻¹
same,kcat/Km,[33],659000 M⁻¹ s⁻¹
same,kcat/Km,[34],881000 M⁻¹ s⁻¹
same,kcat/Km,[35],93300 M⁻¹ s⁻¹
same,kcat/Km,[36],1.19e+06 M⁻¹ s⁻¹
